The source of these data is the nanobody polyreactivity screen of Harvey et al. (2022).

The data set can be described thus: yeast display, Sf9 membrane polyspecificity reagent, FACS + sequencing; frameworks hold sequencing errors. The method, boiled down: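 Using colony PCR, genes from sorted yeast display clones were amplified, then sequenced on MiSeq at 2 × 250 and filtered by CDR length. The clones had been stained with 10% biotinylated, detergent-solubilized Sf9 membrane reagent for 1 hour at 4 °C and sorted by FACS into low and high (top ~1%) gates on anti-HA and streptavidin fluorescence. Polyreactivity labels come from the gate of origin.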
For the sequence “QVQLVESGGGLVQAGGSLRLSCAASGFTFWLYAMGWYRQAPGKERELVAAIDWDGGTYYADSVKGRFTISRDNAKNTVYLQMNSLKPEDTAVYYCAARYRYYYTRYDYWGQGTQVTVSS”, the “polyreactivity (PSR sort gate)” value is reported as “high polyreactivity”. Take “QVQLVESGGGLVQAGGSLRLSCAASGFTFWLYSMGWDRQAPGKEREFVAAISTSGGSTYADSVKGRFTISRDNAKNTVYLLMNSLKPEDTAVYYCAGVYTYPLGYYHYTYDYWGQGTQVTVSS”: the “polyreactivity (PSR sort gate)” value is listed as “low polyreactivity”. Next, “QVQLVESGGGLVQAGGSLRLSCAASGFTFWLYSMGWYRQAPGKERELVAAISWSGGSTYYADSVKGRFTISRDNAKNTVYFQMNSMKPEDPAVYYCAAVKYVRCAEFYYWGQGTQVTVSS”: “high polyreactivity”; “QVQLVESGGGLVQAGGSLRLSCAASGFTFWLYTMGWYRQAPGKERELVAAISWSGGSTYYADSVKGRFTISRDTAKNTVYLQMNSLKPEDTAVYYCNALYVGYYDSMGYWGQGTQVTVSS”: “high polyreactivity”; “QVQLVESGGGLVQAGGSLRLSCAASGFTFWQYAMGWNRQAPGKERELVAAITWDVGSTYYSDSVKGRFTISRDNAKNTVYLQLNSLKPEDTAVYYCAKLIGGTYYEDDYWGQGSQVTVSS”: “low polyreactivity”. Consider “QVQLVESGGGLVQAGGSLRLSCAASGFTFWQYAMGWYRQAPGKERELGAAITWDGGSTYYADSVKGRFTISRDTAKNTVYLQMNSLKPEDTAVYYRAKLFGGTYYEYDYWGQGTQVTVSS”, for which the “polyreactivity (PSR sort gate)” value was “low polyreactivity”.

On to “QVQLVESGGGLVQAGGSLRLSCAASGFTFWRNTMGWYRQAPGKERELVAGISGSGGSTYYADSVKGRFTISRDNAKNTVYLQMNSLKPEDTAVYYCAVRGGYTWPTYNYWGQGTQVTVSS”, for which the “polyreactivity (PSR sort gate)” value was “high polyreactivity”. Next, “QVQLVESGGGLVQAGGSLRLSCAASGFTFWRNVMGWYRQAPGKERELVAVISRGGSTNYADSVKGRFTISRDNAKNTVYLKMNSLIPEDTAVYYFAKYARGPSKVDYWGQGTQVTVSS”: “high polyreactivity”. In the case of “QVQLVESGGGLVQAGGSLRLSCAASGFTFWSYAMGWYRQAPGKERELVAAISSSGDSTYYADSVKGRFTISRDNAKNTVYLQMNSLKPEDTAVYYCAAEYQYLSVEVTDIWYLTKYDYWGQGTQVTVSS”, the “polyreactivity (PSR sort gate)” value is on record as “low polyreactivity”. For the sequence “QVQLVESGGGLVQAGGSLRLSCAASGFTFWVYAMGWYRQAPGKEREFVASISWTGDTTYYADSVKGRFTISRDNAKNTVYLQMNSLKPEDTAVYYCAGDTILGYDYWGQGTQVTVSS”, the “polyreactivity (PSR sort gate)” value is “low polyreactivity”. On to “QVQLVESGGGLVQAGGSLRLSCAASGFTFWVYAMGWYRQAPGKERELVAAISARGGSTYYADSVKVRFTISRDNAKNTVYLQMNRLKPEDTAVYYCAAEPSGKRSKFYYWGQGTQVTVSS”, for which the “polyreactivity (PSR sort gate)” value was “high polyreactivity”. For the sequence “QVQLVESGGGLVQAGGSLRLSCAASGFTFWYYAMGWYRQAPGKERELVAAITYTGDRTYYADSVKGRFTISRDNAKNTVYLQMNSLKREDTAVYYCDVYLGIRSGTANDYWGQGTQVTVSS”, the “polyreactivity (PSR sort gate)” value is listed as “high polyreactivity”. Take “QVQLVESGGGLVQAGGSLRLSCAASGFTFYANAMGWYRQAPGKERELVAAITQGGDSTYFADSVKGRFTISRDNAKKSVYLQLNSLKREDTAVYYCNTDLLCEYDYWGQGTQVTVSS”: the “polyreactivity (PSR sort gate)” value is listed as “low polyreactivity”.

In the case of “QVQLVESGGGLVQAGGSLRLSCAASGFTFYAYAMGWYRQAPGKERELVAAISSRGGRTYYADSVKGRFTISRDNAKNTVYLQMNSLKPEDTAVYYCIVPYYSFRELSSYYWGQGTQVTVSS”, the “polyreactivity (PSR sort gate)” value is on record as “high polyreactivity”. Take “QVQLVESGGGLVQAGGSLRLSCAASGFTFYDNAMGWYRQAPGKERELVAAISWSGGSTYADSVKGRFTISRDNAKNTVYVQMNSLKPEDTAVYYCNADAWLASGYRYDYWGQGTQVTVSS”: the “polyreactivity (PSR sort gate)” value is given as “low polyreactivity”. As to “QVQLVESGGGLVQAGGSLRLSCAASGFTFYDYAMGLYRQAPGKERELVAGISRDGGTTYYSDSVKGRFTISRDNAKNTVYLQMNSLKPEDTAVYYCAVDFLDWYQDYYITYDYWGQGSQVTVSS”, the “polyreactivity (PSR sort gate)” value was “low polyreactivity”. To “QVQLVESGGGLVQAGGSLRLSCAASGFTFYDYAMVWYRQAPGKERELVAGITSTGRTYYADSVKGRFTISRDNAKNTVYLQMNSLKPEDTAVYYCNARTLPNYYRRYDYWGQGTEVTVSS” belongs “high polyreactivity”; to “QVQLVESGGGLVQAGGSLRLSCAASGFTFYGYAMGWYRQAPGKEREFVAAISSRGGRTYYADSVKGRFTISRDNAKNTVYLQMNSLKPEDTAVYYCARRRATGRFSLDYWGQGTQVTVSS”, “high polyreactivity”. In the case of “QVQLVESGGGLVQAGGSLRLSCAASGFTFYGYAMGWYRQAPGKERELVAAINSGAITNYADSVKGRFTISRDNAKNTVYLQMNSLKPEDTAVYYCAASYRRLTGVGADEYWGQGTQVTVSS”, the “polyreactivity (PSR sort gate)” value is listed as “high polyreactivity”.

For “QVQLVESGGGLVQAGGSLRLSCAASGFTFYGYAMGWYRQAPGKERELVAAISSSGTSTYYADSVKGRFTISRDNAKNTVYLQMNSLKPEDTAVYYCAALVRGAYGYGYWGQGTQVTVSS”, the “polyreactivity (PSR sort gate)” value is “high polyreactivity”. “QVQLVESGGGLVQAGGSLRLSCAASGFTFYGYAMGWYRQAPGKERELVASISWSGGTTYYADSVKGRFTISRDNAKNTVYLQMNSLKPEDTAVYYCNAVRYRYGVFPYYYWGQGTQVTVSS”: the “polyreactivity (PSR sort gate)” value was “high polyreactivity”.

“QVQLVESGGGLVQAGGSLRLSCAASGFTFYGYVMGWYRQAPGKERDLVAVISRSGDRTYYADSVKGRFTISRDNAKNTVYFQMNSLKPEDTAVYYCAARVYLLGWWTGNGYWGQGTQVTVSS”: the “polyreactivity (PSR sort gate)” value is reported as “high polyreactivity”.

With “QVQLVESGGGLVQAGGSLRLSCAASGFTFYHYAMGWYRQAPGKERELVATISKRGGSTYYADSVKGRFTISRDNAKNTVYLQMNSLKPEDTAVYYCAAKIYWSSLKMDYWGQGTQVTVSS”, the “polyreactivity (PSR sort gate)” value is on record as “high polyreactivity”. For the sequence “QVQLVESGGGLVQAGGSLRLSCAASGFTFYINALGWYRLAHGKERELVAAITWRSVRTYYADSVKGRFTISRDNAKNTVYLQMNSRKPEDTEVYYCAAASAYRHGEYDYWGQGTQLTVSS”, the “polyreactivity (PSR sort gate)” value is on record as “low polyreactivity”.

Take “QVQLVESGGGLVQAGGSLRLSCAASGFTFYIYAMGWYRQAPGKERELVAAISSGGGRTYYADSVKGRFTISRDNAKNTVYLQMNSLKPEDTAVYYCAARGRAFSYNNYGSDYWGQGTQVTVSS”: the “polyreactivity (PSR sort gate)” value is recorded as “high polyreactivity”. Regarding “QVQLVESGGGLVQAGGSLRLSCAASGFTFYIYVMGWYRQARGKERELVAAITWSGGRTYYADSVKGRFTISRDYAKNTVYLQMNSLKPEDTAVYYCAASYPGLSYHKYEYWGQGTQVTVSS”, the “polyreactivity (PSR sort gate)” value is on record as “high polyreactivity”.

Turning to “QVQLVESGGGLVQAGGSLRLSCAASGFTFYKNTMGWYRQAHGTERELVAAISSSGSSTYYADSVKGRFTISRDNAKNTVYLQMNSLKPEDTAVYYCAAGRFAYHDDYWGQGTQVTVSS”, the “polyreactivity (PSR sort gate)” value was “high polyreactivity”. As to “QVQLVESGGGLVQAGGSLRLSCAASGFTFYKNTMGWYRQAPGKERELVAAISSSGSSTYYADSVKGRFTISRDKAKNTVYLQMNSLKPEDTAVYYCAAGRFAYHDDYWGQGTQVTVSS”, the “polyreactivity (PSR sort gate)” value was “high polyreactivity”. Consider “QVQLVESGGGLVQAGGSLRLSCAASGFTFYKYVMGWYRQAPGKERELVAAITTSGGSTYYADSVKGRFTISRDNAKNTVYLQMNSLKPEDTAVYYCNALARWWAYYDYGYWGQGTQVTVSS”, for which the “polyreactivity (PSR sort gate)” value is listed as “low polyreactivity”. Consider “QVQLVESGGGLVQAGGSLRLSCAASGFTFYLNVMGWYRQAPGKERELVARISRSGGTTYYADSVKGRFTISRDNAKNTVYLQMNSLKPEDTAVYYCAARRYGVPPTYDYWGQGTQVTVSS”, for which the “polyreactivity (PSR sort gate)” value is reported as “high polyreactivity”. As to “QVQLVESGGGLVQAGGSLRLSCAASGFTFYLYAMGWYRQAPGKERELVAAITWSGGRTYYADSVKGRFTISRDNAKNTVYLQMNSLKPEDTAVYYCAAVVRKQLSAPSDYWGQGTQVTVSS”, the “polyreactivity (PSR sort gate)” value is reported as “high polyreactivity”. As to “QVQLVESGGGLVQAGGSLRLSCAASGFTFYNNAMGWYRQAPGKERELVAVITSNGGRTYYADSVKGRFTISRDNAKITVYLQMNSLKPEDTAVYYCAADYWGLGTQVTVSS”, the “polyreactivity (PSR sort gate)” value is reported as “low polyreactivity”. For “QVQLVESGGGLVQAGGSLRLSCAASGFTFYNYAMGWYRQAPGKERELVAAISRSGRTYYADSVKGRFTISRDNAKNTVYLQMNSLKPEDTAVYYCAAGHGGDPGSGYWGQGTQVTVSS”, the “polyreactivity (PSR sort gate)” value is “high polyreactivity”. As to “QVQLVESGGGLVQAGGSLRLSCAASGFTFYNYAMGWYRQAPGKERELVAAITSSGGRTYYADSVKGRFTISRDNAKNTVYLQMNSLKPEDTAVYYCAATGFYLRGEYYYCGQGTQVTVSS”, the “polyreactivity (PSR sort gate)” value is listed as “low polyreactivity”. For “QVQLVESGGGLVQAGGSLRLSCAASGFTFYPYALGRYRQAPRKEREFVAAISNGDSTHYADSVKGRFTISRDNAKNTVYLQMNSLKPEDTAVYYCNAYTRYPFYFVTSKYDYWGQGTQVTVSS”, the “polyreactivity (PSR sort gate)” value is reported as “low polyreactivity”. In the case of “QVQLVESGGGLVQAGGSLRLSCAASGFTFYQYAMGWYRQAPGKEREFVAAISSSGSSTYYADSVKGRFTISRDNAKNTVYLQMNSLKPEDTEVYYCNAYFRNWRYSPGGYWGQGTQVTVSS”, the “polyreactivity (PSR sort gate)” value is “high polyreactivity”. To “QVQLVESGGGLVQAGGSLRLSCAASGFTFYRNAMGWYRQAPGKERELVAAINYSGGSTYFADSVKGRFTISRDNAKNTVYLQMNSLKPEVTAVYYCAVPYNYYRYHYSGYDYWGQGTQVTVSS” belongs “high polyreactivity”; to “QVQLVESGGGLVQAGGSLRLSCAASGFTFYRNAMGWYRQAPGKERELVAAISWRGSSTYYADSVKGRFTISRDNAKNTVYLQMNSLKPEDTAVYYCATEYPYWYYYRMDYWGQGTQVTVSS”, “high polyreactivity”; to “QVQLVESGGGLVQAGGSLRLSCAASGFTFYRNAMGWYRQAPGKERELVASISRSGGSTYYADSVKGRFTNSRDNAKNTVYLQMNSLKPEDTAVYYCAADLWWIYPHKYYYWGQGTQVTVSS”, “high polyreactivity”. Regarding “QVQLVESGGGLVQAGGSLRLSCAASGFTFYRYAMGWYRQAPGKEREFVAVINIRGSTTYYADSVKGRFTISRDNAKNTVYLQMNSLKPEDTAVYYCARRYRGPYYSLPRRKEFDYWGQGTQVTVSS”, the “polyreactivity (PSR sort gate)” value is recorded as “high polyreactivity”.

“QVQLVESGGGLVQAGGSLRLSCAASGFTFYRYAMGWYRQAPGKERELVAAISSGGRTTYADSVKGRFTISRDNAKNTVYLQMNSLKPEDTAVYYCVFVYVYDYYYWGQGTQVTVSS”: the “polyreactivity (PSR sort gate)” value is reported as “high polyreactivity”.
